# Reference: US20200121814A1 (GENERAL HOSPITAL, published 2020)
# Bridge positions count the residues as written; N and C are the ends. Ends that are not written are not given here. * marks the point of attachment. Biotin = O=C1N[C@H]2[C@H](CS[C@H]2CCCCC(=O)*)N1
# B1: HER3P1 (biotin-conjugated, N-terminal tri-glycine linker) (peptide)
# peptide: Biotin-GGGCLPTKFRSC
# modifications: disulfide 4-12 (inferred); not fully specified
# notes: The formulas of the description print a beta A before G-G-G; also called HER3 peptide; the peptide
# What was measured:
# [1] = molecular target: HER3 extracellular domain (ECD) (R&D Systems) (human) (UniProt P21860); experiment: ELISA of purified phage on adsorbed HER3 ECD, anti-M13-HRP and ABTS
# Chain of HER3 extracellular domain (ECD) (R&D Systems) (human) (P21860 20-643): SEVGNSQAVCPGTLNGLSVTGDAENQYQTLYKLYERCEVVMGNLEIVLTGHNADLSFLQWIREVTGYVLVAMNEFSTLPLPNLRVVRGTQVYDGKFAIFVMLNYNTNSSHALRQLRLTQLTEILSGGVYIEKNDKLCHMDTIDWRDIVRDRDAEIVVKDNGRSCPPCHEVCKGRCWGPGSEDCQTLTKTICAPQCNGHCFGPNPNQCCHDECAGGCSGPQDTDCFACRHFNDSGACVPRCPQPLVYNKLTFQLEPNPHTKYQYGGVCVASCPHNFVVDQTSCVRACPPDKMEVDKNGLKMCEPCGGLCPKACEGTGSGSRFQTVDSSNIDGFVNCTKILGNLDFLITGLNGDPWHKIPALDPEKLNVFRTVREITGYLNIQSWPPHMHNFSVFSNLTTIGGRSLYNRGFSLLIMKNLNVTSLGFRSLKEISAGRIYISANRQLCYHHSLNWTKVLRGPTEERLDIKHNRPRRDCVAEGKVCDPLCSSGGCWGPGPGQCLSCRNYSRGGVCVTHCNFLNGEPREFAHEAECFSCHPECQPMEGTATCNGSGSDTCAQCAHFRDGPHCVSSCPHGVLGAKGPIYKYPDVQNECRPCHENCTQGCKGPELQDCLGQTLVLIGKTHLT
# [2] = molecular target: HER3 on cells (MDA-MB-453, moderate HER3; HCC-1954, low HER3) (human) (UniProt P21860); experiment: cell binding on MDA-MB-453 cells (moderate HER3), 250 nM peptide, streptavidin-HRP and ABTS
# Chain of HER3 on cells (MDA-MB-453, moderate HER3; HCC-1954, low HER3) (human) (P21860 20-1342): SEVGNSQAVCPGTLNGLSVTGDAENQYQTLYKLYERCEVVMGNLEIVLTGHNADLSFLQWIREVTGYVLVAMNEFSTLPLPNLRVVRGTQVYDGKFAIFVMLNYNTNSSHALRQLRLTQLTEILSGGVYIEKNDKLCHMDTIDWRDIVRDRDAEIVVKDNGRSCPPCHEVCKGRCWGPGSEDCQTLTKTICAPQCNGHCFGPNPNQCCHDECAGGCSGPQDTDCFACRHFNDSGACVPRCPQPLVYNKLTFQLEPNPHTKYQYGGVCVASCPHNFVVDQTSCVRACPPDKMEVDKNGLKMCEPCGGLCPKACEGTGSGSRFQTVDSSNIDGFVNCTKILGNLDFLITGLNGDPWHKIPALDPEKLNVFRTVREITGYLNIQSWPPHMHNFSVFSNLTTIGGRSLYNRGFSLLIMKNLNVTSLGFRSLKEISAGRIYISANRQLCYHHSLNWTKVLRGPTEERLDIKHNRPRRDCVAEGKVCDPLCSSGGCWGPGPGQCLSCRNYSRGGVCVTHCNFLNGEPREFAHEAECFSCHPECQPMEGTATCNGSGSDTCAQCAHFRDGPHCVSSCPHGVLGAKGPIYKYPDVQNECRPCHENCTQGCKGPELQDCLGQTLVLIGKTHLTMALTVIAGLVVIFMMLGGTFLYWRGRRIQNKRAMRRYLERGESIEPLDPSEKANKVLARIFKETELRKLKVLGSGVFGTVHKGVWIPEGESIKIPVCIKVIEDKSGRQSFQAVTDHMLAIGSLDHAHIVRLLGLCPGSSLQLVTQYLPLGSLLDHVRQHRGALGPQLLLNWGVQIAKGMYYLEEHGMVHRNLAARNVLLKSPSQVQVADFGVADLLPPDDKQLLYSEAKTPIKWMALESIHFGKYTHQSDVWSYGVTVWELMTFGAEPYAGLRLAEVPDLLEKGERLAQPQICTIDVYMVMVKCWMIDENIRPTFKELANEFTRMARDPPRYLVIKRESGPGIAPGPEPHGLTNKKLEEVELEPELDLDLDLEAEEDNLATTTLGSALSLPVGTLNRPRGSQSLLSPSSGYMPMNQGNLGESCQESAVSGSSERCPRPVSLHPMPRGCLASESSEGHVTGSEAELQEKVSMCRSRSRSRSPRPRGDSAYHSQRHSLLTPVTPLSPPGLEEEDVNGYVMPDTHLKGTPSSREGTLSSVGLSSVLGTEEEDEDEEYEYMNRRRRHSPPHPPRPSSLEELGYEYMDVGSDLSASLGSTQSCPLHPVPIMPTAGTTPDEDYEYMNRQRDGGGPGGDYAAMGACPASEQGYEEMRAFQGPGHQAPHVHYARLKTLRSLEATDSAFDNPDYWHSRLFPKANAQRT
# [3] = molecular target: T1, HER3 extracellular domain (ECD) (R&D Systems) (human, UniProt P21860 20-643); experiment: phage binding to HER3, normalized to parent phage
# T1 construct: extracellular domain; Adsorbed to Maxisorp plates in the ELISAs; also called HER3 ECD; ERBB3
# T1 sequence (P21860 20-643): as the sequence (P21860 20-643) above
# [4] = molecular target: bovine serum albumin (bovine) (UniProt P02769); experiment: peptide ELISA on immobilized protein, 250 nM peptide, streptavidin-HRP and ABTS
# Chain of bovine serum albumin (bovine) (P02769 25-607 limits assumed): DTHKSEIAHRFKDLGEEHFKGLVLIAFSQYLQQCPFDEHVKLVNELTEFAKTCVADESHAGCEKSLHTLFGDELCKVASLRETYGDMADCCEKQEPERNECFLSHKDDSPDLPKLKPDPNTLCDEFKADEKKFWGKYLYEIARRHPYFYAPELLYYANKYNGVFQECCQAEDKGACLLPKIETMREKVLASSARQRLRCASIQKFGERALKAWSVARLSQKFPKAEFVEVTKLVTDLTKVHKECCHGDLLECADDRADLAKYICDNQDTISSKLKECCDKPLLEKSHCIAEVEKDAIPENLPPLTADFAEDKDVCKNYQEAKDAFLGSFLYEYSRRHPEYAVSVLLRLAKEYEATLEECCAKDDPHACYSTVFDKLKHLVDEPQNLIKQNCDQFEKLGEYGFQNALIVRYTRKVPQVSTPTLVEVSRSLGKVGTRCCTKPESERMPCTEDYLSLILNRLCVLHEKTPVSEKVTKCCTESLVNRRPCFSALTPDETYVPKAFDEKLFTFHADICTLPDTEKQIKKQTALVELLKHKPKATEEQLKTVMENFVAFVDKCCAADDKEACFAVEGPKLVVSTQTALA
# [5] = molecular target: T1, HER3 extracellular domain (ECD) (R&D …); experiment: peptide ELISA on immobilized ECD, 250 nM peptide, streptavidin-HRP and ABTS
# [6] = molecular target: T2, EGFR extracellular domain (UniProt P00533 25-645, limits assumed); experiment: as above
# T2 construct: extracellular domain; Immobilized on plate for peptide ELISA
# [7] = molecular target: T3, HER2 extracellular domain (UniProt P04626 23-652, limits assumed); experiment: as above
# T3 construct: extracellular domain; Immobilized on plate for peptide ELISA; also called ErbB2; neu
molecule,measurement,setting,value
control phage bearing no peptide,"absorbance (background subtracted, 405 nm)",[1],0.007 absorbance
control peptide,absorbance (405 nm),[2],0.12 absorbance
"CAPTKFRSC (peptide, not shown: large carriers) [phage M1 (alanine mutant at position 2 of the HER3P1 binding sequence)]",decrease of binding against parent (HER3P1) phage,[3],≥ 50%
"CLPTKFRAC (peptide, not shown: large carriers) [phage M7 (alanine mutant at position 8 of the HER3P1 binding sequence)]",decrease of binding against parent (HER3P1) phage,[3],≥ 50%
"CLPTKFASC (peptide, not shown: large carriers) [phage M6 (alanine mutant at position 7 of the HER3P1 binding sequence)]",decrease of binding against parent (HER3P1) phage,[3],≥ 50%
"CLATKFRSC (peptide, not shown: large carriers) [phage M2 (alanine mutant at position 3 of the HER3P1 binding sequence)]",decrease of binding against parent (HER3P1) phage,[3],≥ 50%
"CLPAKFRSC (peptide, not shown: large carriers) [phage M3 (alanine mutant at position 4 of the HER3P1 binding sequence)]",decrease of binding against parent (HER3P1) phage,[3],≥ 50%
B1,absorbance (405 nm),[4],0.15 absorbance
same,absorbance (405 nm),[5],0.82 absorbance
same,absorbance (405 nm),[6],0.21 absorbance
same,absorbance (405 nm),[7],0.22 absorbance
